Measurements reported in US20090047285A1 (ONCOMED PHARMACEUTICALS, published 2009).
Where a chain is given by its changes, count along the chain named.

Tests used:
[1] = biological target: T1, hNotch1 glutamate ligand binding region protein (EGF10-15), immobilized on a CM5 chip (human, UniProt P46531 375-601); assay: Biacore 2000, Notch EGF10-15 protein on CM5 chip, antibody 25 to 0.20 nM
T1 construct: domain: EGF10-15
Method: (§1) The KD's of certain anti-Notch glutamate ligand binding region antibodies were determined using the Biacore 2000 system from Biacore Lifesciencse (GE Healthcare). Specifically, purified anti-Notch glutamate ligand binding region antibodies were serially diluted in 2-fold increments from 25 to 0.20 nM in PBS with HBS-P (0.01 M HEPES pH 7.4, 0.15 M NaCl, 0.005% v/v Surfactant P20). Each dilution was tested against Notch glutamate ligand binding region proteins (EGF10-15) immobilized onto a CM5 Biacore chip. The association and dissociation rates were measured and KD values determined using the Biaevaluation software program. NB in the table below means a binding affinity as measured by a KD that is at least ten-fold weaker than the notch-ligand (delta-like ligand) affinity constant.

[2] = biological target: T2, mNotch1 glutamate ligand binding region protein (EGF10-15), immobilized on a CM5 chip (mouse, UniProt Q01705 375-601); assay: as above
T2 construct: domain: EGF10-15
T2 sequence (looked up): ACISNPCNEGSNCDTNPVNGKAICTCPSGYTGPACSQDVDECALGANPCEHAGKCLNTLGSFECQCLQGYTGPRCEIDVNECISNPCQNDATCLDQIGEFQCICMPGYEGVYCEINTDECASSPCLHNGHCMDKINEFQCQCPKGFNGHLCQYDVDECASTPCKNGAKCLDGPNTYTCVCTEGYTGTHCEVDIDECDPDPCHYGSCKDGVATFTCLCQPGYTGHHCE
Method: as §1

[3] = biological target: T3, full length Notch1 E424Q, expressed on HEK 293 cells (human, UniProt P46531 19-2555); assay: FACS on transfected HEK 293 cells (FIG. 5)
T3 construct: whole, on cells; also called mutated receptor (E424Q)
T3 sequence (P46531 19-2555 E424Q): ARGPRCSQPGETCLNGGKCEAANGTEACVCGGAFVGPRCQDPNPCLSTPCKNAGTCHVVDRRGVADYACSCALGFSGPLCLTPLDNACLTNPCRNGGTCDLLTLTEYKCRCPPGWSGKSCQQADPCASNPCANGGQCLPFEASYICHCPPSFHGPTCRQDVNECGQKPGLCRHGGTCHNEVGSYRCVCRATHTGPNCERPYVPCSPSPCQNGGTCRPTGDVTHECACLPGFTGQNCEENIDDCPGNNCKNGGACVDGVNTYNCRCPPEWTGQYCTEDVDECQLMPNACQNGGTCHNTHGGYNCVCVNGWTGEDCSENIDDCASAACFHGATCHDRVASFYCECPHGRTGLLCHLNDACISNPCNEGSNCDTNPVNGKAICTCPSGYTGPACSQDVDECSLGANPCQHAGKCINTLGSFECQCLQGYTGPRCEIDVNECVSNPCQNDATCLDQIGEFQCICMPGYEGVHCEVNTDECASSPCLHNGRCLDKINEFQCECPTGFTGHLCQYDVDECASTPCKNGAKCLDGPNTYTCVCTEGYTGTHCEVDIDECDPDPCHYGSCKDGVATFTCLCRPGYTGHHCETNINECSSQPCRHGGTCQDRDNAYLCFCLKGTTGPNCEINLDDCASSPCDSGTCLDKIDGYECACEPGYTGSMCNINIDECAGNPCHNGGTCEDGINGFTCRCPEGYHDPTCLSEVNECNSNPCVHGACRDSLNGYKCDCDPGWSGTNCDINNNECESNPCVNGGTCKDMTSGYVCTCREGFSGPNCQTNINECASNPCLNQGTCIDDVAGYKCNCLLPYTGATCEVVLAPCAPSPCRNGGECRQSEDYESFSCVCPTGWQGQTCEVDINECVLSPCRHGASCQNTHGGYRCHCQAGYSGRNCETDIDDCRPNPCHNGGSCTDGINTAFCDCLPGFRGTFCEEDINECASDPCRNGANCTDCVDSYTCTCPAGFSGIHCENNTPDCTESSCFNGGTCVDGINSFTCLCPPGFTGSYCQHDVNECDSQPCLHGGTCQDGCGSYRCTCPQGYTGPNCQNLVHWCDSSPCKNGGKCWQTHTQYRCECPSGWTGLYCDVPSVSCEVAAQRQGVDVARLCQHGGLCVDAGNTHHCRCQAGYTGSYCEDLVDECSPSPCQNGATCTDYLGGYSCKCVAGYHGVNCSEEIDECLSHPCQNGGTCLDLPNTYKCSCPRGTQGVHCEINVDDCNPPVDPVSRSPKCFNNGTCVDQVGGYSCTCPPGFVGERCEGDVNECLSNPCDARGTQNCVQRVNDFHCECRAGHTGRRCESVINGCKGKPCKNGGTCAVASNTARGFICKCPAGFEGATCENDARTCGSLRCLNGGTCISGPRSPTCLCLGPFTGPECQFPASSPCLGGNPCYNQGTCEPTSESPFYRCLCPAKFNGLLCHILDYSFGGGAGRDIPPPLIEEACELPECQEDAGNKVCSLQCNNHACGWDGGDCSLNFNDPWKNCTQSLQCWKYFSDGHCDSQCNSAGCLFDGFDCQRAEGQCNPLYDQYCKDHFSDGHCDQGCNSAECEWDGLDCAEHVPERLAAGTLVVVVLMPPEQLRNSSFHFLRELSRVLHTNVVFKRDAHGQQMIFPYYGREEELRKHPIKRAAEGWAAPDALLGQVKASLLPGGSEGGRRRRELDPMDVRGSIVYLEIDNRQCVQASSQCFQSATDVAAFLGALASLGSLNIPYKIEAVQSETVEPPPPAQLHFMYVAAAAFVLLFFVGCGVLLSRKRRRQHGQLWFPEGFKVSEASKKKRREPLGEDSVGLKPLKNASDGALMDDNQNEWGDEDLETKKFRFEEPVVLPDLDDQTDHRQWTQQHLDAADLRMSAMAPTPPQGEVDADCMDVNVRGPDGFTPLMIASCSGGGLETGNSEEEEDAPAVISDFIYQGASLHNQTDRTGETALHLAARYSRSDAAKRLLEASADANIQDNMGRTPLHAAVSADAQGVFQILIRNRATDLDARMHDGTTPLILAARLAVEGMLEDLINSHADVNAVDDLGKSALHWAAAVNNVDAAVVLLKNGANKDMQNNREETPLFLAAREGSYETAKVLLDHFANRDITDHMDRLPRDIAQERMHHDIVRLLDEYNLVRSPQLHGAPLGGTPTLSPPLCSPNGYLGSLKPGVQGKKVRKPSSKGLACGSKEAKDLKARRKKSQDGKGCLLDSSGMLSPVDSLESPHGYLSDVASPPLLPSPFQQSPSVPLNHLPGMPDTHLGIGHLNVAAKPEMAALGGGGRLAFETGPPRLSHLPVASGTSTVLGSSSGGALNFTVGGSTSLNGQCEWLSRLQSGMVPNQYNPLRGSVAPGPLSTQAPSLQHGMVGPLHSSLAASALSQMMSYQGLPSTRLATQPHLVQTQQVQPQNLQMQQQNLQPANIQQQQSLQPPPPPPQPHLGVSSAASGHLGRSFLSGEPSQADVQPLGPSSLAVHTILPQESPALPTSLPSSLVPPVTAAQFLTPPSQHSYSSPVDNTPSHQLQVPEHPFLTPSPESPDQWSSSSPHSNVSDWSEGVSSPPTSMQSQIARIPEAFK

[4] = biological target: T4, mNotch3(EGF9-14)Fc (mouse, UniProt Q61982 352-581); assay: survey of fAbs after phage display selection on mNotch3(EGF9-14)Fc
T4 construct: domain: EGF9-14; also called murine Notch3; selected antigen; not shown: Fc
T4 sequence (looked up): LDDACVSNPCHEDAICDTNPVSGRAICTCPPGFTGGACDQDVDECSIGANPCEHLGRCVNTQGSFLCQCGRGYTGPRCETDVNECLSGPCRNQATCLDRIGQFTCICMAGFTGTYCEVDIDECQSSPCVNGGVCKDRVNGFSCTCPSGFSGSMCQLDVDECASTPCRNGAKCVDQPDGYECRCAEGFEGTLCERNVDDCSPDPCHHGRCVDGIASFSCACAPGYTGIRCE

[5] = biological target: T5, hNotch3 glutamate ligand binding region protein (EGF10-15 as printed), immobilized on a CM5 chip (human, UniProt Q9UM47 351-580); assay: Biacore 2000, Notch ligand binding region protein on CM5 chip, antibody 25 to 0.20 nM
T5 construct: domain: EGF10-15; For Notch3 the equivalent repeats would be EGF9-14
T5 sequence (looked up): T4 sequence (looked up) with S22N, M153T, E193D, I227T
Method: as §1

B1: 90R21 (antibody, V domains shown)
VH: EVQLLESGGGLVQPGGSLRLSCAASGFTFSNYGMSWVRQAPGKGLEWVSSISGYGSNTYYADSVKGRFTISRDNSKNTLYLQMNSLRAEDTAVYYCARISQQAVWGQGTLVTVSS
VL: QSALTQPASVSGSPGQSITISCTGTSSDIGGYQYVSWYQQHPGKAPKLMIYYVSNRPSGVSNRFSGSKSGNTASLTISGLQAEDEADYYCQSADSSSWVFGGGTKLTVLG
notes: also called ATCC deposit No. PTA-8909
B1 gave a Kd [1] of under 0.1 nM and a Kd [2] of 0.25 nM.

B2: 122R5 (Fab, V domains shown)
VH: QVQLVESGGGLVQPGGSLRLSCAASGFTFSDNAIHWVRQAPGKGLEWVSAISSYGSGTYYADSVKGRFTISRDNSKNTLYLQMNSLRAEDTAVYYCARPGFQFSFTFMDIWGQGTLVTVSS
VL: DIELTQPPSVSVAPGQTARISCSGDALGSKYASWYQQKPGQAPVLVIYDDKNRPSGIPERFSGSNSGNTATLTISGTQAEDEADYYCQSWDGKSKVVFGGGTKLTVLG
notes: Human fAb from phage display; also called fAb122R5; lead fAb, 122R5
For B2, the binding result [3] was “no binding”, the binding result [4] was “binds” and the Kd [1] was 4.25 nM. For the same binder, the Kd [5] was under 0.1 nM.
